Results on one molecule are retold here after CN114539423A (dated 2022).

The target in test [1] is CD3 (on human T cells) (human). In words: flow cytometry titration on human T cells, same method as for Nalm6, fitted in GraphPad Prism8.
The target of test [2] is T1, CD19 (on Nalm6 leukemia cells) (human, UniProt P15391 20-556).
T1 construct: whole, on cells; also called CD19抗原; Nalm6上的CD19抗原
T1 sequence (looked up): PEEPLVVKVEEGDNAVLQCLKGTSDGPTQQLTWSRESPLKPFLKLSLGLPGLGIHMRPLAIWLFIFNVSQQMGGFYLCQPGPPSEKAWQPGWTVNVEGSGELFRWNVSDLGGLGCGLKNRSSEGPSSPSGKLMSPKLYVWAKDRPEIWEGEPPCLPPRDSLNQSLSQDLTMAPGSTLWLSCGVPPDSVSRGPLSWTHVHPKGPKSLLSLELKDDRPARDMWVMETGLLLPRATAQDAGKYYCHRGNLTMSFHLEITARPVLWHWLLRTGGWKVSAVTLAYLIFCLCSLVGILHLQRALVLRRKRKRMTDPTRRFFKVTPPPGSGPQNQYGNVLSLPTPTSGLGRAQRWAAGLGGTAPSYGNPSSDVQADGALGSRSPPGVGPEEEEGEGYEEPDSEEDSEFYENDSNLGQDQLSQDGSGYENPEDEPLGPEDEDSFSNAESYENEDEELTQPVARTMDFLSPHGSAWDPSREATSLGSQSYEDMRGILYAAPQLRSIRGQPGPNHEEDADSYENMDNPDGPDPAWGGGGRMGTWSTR
In words: flow cytometry titration (0.05-100 nM) on Nalm6 cells, anti-His then APC anti-mouse IgG detection, fitted in GraphPad Prism8.

CD3 (on human T cells) (human), sequence (P07766 23-207, chain 1 of 4): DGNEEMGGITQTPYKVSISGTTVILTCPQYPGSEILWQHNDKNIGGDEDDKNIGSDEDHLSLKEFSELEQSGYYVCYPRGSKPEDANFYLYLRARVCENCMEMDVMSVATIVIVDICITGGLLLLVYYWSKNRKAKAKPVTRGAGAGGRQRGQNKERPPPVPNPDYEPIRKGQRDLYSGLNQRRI
CD3 (on human T cells) (human), sequence (P09693 23-182, chain 2 of 4, further chain): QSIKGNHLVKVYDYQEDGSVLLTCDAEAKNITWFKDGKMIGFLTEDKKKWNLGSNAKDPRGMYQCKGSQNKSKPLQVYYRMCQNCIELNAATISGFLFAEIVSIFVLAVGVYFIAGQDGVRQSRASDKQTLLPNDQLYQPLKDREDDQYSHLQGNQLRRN
CD3 (on human T cells) (human), sequence (P04234 22-171, chain 3 of 4, further chain): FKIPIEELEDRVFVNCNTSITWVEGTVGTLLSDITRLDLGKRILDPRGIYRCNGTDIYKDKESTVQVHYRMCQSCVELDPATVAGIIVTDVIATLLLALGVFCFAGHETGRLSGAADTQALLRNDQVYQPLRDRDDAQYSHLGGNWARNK
CD3 (on human T cells) (human), sequence (P20963 22-164, chain 4 of 4, further chain): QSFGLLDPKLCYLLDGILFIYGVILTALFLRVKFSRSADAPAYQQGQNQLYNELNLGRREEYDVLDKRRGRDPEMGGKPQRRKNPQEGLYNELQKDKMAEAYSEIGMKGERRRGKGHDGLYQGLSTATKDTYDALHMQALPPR

B1: CD19scFv-CD80-CD3scFv三特异性融合蛋白 (other)
chain: HHHHHHLEDIVLTQSPKFMSTSVGDRVSVTCKASQNVGTNVAWYQQKPGQSPKPLIYSATYRNSGVPDRFTGSGSGTDFTLTITNVQSKDLADYFCQQYNRYPYTSGGGTKLEIKRGGGGSGGGGSGGGGSQVQLQQSGAELVRPGSSVKISCKASGYAFSSYWMNWVKQRPGQGLEWIGQIYPGDGDTNYNGKFKGQATLTADKSSSTAYMQLSGLTSEDSAVYFCARKTISSVVDFYFDYWGQGTTLTVSSEFGGGGSGGGGSGGGGSGGGGSVIHVTKEVKEVATLSCGHNVSVEELAQTRIYWQKEKKMVLTMMSGDMNIWPEYKNRTIFDITNNLSIVILALRPSDEGTYECVVLKYEKDAFKREHLAEVTLSVKADFPTPSISDFEIPTSNIRRIICSTSGGFPEPHLSWLENGEELNAINTTVSQDPETELYAVSSKLDFNMTTNHSFMCLIKYGHLRVNQTFNWNTTKQEHFPDNGGGGSGGGGSGGGGSGGGGSVDADIELTQSPAIMSASPGEKVTMTCSASSSVSYMNWYQQKSGTSPKRWIYDTSKLASGVPARFSGSGSGTSYSLTISGMEAEDAATYYCQQWSSNPFTFGSGTKLELKRGGGGSGGGGSGGGGSQVQLQQSGAELARPGASVKMSCKASGYTFTRYTMHWVKQRPGQGLEWIGYINPSRGYTNYNQKFKDKATLTTDKSSSTAYMELTRLTSEDSAVYYCARYYDDHYSLDYWGQGTTVTVSSWSHPQFEK
notes: Expressed in ExpiCHO-S cells; also called 19TriTE; CD19scFv-CD80-CD3scFv重组融合蛋白
For B1, the Kd in test [1] turned out to be 19.2 nM; in test [2] it was 11.7 nM.
